From US20220364173 come the findings set out here.

A value given as a limit tells only on which side of the number the result lay.

For this series, the target named is T1, Bst 2.0 DNA polymerase (UniProt P52026).
T1 sequence: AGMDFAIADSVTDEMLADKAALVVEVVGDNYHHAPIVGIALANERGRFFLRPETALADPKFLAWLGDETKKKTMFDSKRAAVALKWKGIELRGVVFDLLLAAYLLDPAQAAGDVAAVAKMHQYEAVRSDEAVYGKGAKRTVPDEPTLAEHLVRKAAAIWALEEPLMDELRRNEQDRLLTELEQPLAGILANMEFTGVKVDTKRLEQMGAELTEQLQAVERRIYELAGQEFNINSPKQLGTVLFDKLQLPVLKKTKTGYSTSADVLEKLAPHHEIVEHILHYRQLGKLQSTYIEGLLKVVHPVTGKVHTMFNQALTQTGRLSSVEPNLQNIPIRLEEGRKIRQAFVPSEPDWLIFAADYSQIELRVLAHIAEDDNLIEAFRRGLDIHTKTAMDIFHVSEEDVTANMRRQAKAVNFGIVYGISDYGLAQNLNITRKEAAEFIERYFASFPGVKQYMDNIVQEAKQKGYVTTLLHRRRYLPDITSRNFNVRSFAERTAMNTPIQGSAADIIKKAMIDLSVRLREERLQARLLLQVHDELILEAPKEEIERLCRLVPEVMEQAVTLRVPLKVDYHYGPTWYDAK
Conditions: N6-allyl-N6-methyladenosine at centre of NNANN, I2-cyclized; mutation rate on all DRACH motifs during reverse transcription; MgSO4, PEG 4000, 37 C.

The sequence UCGACGUNNANNGGCAUUGCU [NNam6ANN probe] returned an activity of over 25%.
